Experimental data from publication doi:10.1101/737593 (bioRxiv, 2019).

B1: hexa-histidine affinity tagged (His6)-MrpC (natural protein, Myxococcus xanthus, UniProt Q9FDC4 1-248, looked up)
chain: MHGFNRPLGPIGSNVVAPLQTTSSGMMVTANKLVPGQEAIDFKGYFKVESFPHNSTIYRPGDNTDRVYLLKSGRVRLMRIGKNSTRSVVSILRPGDLFGELFRPEGTPIEEMAIAAGEAEVWSIEGRDFRAQLEARPALAVDVVRAYAERVRALRKRVLGLTFKEVPARLADTLLTLVEAHGERCPHGGETDLRGITQQDLADLVGASRSFVSTLINEMKREGVLGNVGRILCVRDQKALRKIAGKEK
B2: His6-MrpC_(AAAA) (natural protein, Myxococcus xanthus, UniProt Q9FDC4 1-248, looked up)
chain: MHGFNRPLGPIGSNVVAPLQAAAAGMMVTANKLVPGQEAIDFKGYFKVESFPHNSTIYRPGDNTDRVYLLKSGRVRLMRIGKNSTRSVVSILRPGDLFGELFRPEGTPIEEMAIAAGEAEVWSIEGRDFRAQLEARPALAVDVVRAYAERVRALRKRVLGLTFKEVPARLADTLLTLVEAHGERCPHGGETDLRGITQQDLADLVGASRSFVSTLINEMKREGVLGNVGRILCVRDQKALRKIAGKEK
B3: His6-MrpC lacking the 25 amino terminal residues (His6-MrpC_(ΔN25)) (domain or fragment, Myxococcus xanthus, UniProt Q9FDC4 26-248, looked up)
chain: MMVTANKLVPGQEAIDFKGYFKVESFPHNSTIYRPGDNTDRVYLLKSGRVRLMRIGKNSTRSVVSILRPGDLFGELFRPEGTPIEEMAIAAGEAEVWSIEGRDFRAQLEARPALAVDVVRAYAERVRALRKRVLGLTFKEVPARLADTLLTLVEAHGERCPHGGETDLRGITQQDLADLVGASRSFVSTLINEMKREGVLGNVGRILCVRDQKALRKIAGKEK

Target: the molecule itself
Assay: SEC

Stoichiometry N, 2:
B1
B2
B3
